Data published in publication PMC8063735.

Key:
[1] = target: T1, citrate synthase (UniProt P00889)
T1 sequence: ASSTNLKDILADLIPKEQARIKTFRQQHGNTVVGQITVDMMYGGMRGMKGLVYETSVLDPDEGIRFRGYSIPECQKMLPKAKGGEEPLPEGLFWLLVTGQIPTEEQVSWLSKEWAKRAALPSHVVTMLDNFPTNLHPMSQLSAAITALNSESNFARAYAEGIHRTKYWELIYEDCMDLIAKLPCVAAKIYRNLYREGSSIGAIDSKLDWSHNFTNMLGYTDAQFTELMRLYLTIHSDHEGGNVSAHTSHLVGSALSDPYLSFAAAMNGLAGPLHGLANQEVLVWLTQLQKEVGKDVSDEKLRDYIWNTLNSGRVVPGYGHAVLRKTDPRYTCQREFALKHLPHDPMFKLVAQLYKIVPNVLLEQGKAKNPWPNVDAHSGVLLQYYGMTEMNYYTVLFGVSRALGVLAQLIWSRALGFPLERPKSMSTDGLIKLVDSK

[2] = target: T1, citrate synthase; remark: listed apart in the source

How did the differential centrifugation after the light scatter assay: per cent of CS in the pellet [1] turn out when “Hsp110^ΔSBDβ (from UniProt Q9VUC1 1-804) (natural protein)” was run?
Its differential centrifugation after the light scatter assay: per cent of CS in the pellet is 4%.

B1: Drosophila melanogaster Hsp110 (Hsc70cb-encoded protein) (natural protein)
chain: MSVIGIDFGNESCYVAAARSGGIETLANDYSLRATPSFVAFDGKKRIIGVAAKNQQVTNMKNTVGGFKRLLGRKFNDPHVQHELTSIPARVEARGDGSIGIKVNYLGEDQHFGPEQLTAMLFTKLKETSAAAMQTQVNDCVIACPVFFTNAERKALLDAAQIAGLNVLRLMNETTATALAYGFYKNDLFEDKPRNVIFVDFGHSSLQASACAFTKGKLKMLASTWDQIGGRDIDLALGDYFAKEFQERYKINAKTNARANLRLLTEIEKLKKQMSANSTKLPLNIECFLDDIDVSSSMQRSQMEELCAPVLQRVEQTFKRLLAESKLQLDDIHSVEIVGGSSRIPSVKQLIEQVFNKPASTTLNQDEAVSRGAALQCAIMSPAVRVREFGVTDIQNYAVKVLWDSEGSAAPGEIEIFPQYHASPFSRLLTINRKGPFNVSIVYGQQVPYPDQTIGVWKVKDVKPTERGEGQDVKLKVRINNNGIVLISSATLVEKKEAEEAAAAAEQAASEEKPGDQTNNTGEPADGQQEGADKKKKASKATELPLECTTHGFSPVDLSNYTQQESKMIGNDQKETERIDAKNALEEFVYDMRNKLQGGPFERYVVEAEREKIVSQLNDLENWLYEDGEDCERDIYTSRLQALHQKTDPIKLRASDYEQGPAAFDELKNSIAIARLAVAEFRKGVPKYDHLTETEFINISETADKAQSWLDANLPKFTQSPRTADSPVQISAVRQEVQTLNSCVSSVINRAKPKPTPAKTATPPKDEANAEQNGGEPAANSGDKMDVDNNGQSAAGNDPSMEVE
For B1, which suppression of aggregation of chemically denatured CS, light scattering at 320 nm, chaperone to substrate 1:1, 2:1 and 4:1 [2] is on record?
Its suppression of aggregation of chemically denatured CS, light scattering at 320 nm, chaperone to substrate 1:1, 2:1 and 4:1 is 50%.
